Data on 5 variants can be found in FireProtDB (doi:10.1006/jmbi.1995.0323).

First the molecules themselves.
B1: Subtilisin inhibitor, P01006 (parent)
chain: MRNTGAGPSPSVSRPPPSAAPLSGAALAAPGDAPSALYAPSALVLTVGKGVSATTAAPERAVTLTCAPGPSGTHPAAGSACADLAAVGGDLNALTRGEDVMCPMVYDPVLLTVDGVWQGKRVSYERVFSNECEMNAHGSSVFAF

The data set covers variants of B1. Conditions: Streptomyces albogriseolus, Thermal, DSC, reversible: yes, structure 3SSI, whole UniProt chain shown.
[1] abbreviates: pH 3.2, 53.36 °C, glycine 25 mM.
[2] abbreviates: pH 7, 82.21 °C, Sodium phosphate 25 mM.

Take M134L: under setting [1], the “ddG of mutation (higher = less stable)” value was -0.77 kcal/mol and the unfolding free energy was 6.32 kcal/mol. Under setting [2], the “ddG of mutation (higher = less stable)” value is -0.15 kcal/mol and the unfolding free energy came out at 6.18 kcal/mol. Moreover, for the setting “pH 7, Sodium phosphate 25 mM”, the midpoint of thermal melting (Tm) (as a rule, the temperature at the midpoint of the melting transition) is 82.5 °C; the “change of melting temperature, mutant - wild type (higher = more stable)” value (“change of melting temperature, mutant” for short) turned out to be 0.3 °C; the “unfolding enthalpy (calorimetric)” value came to 182 kcal/mol. For the setting “pH 9.5, 80.7 °C, glycine 25 mM”, the “ddG of mutation (higher = less stable)” value was 0.29 kcal/mol and the unfolding free energy was found to be 5.75 kcal/mol. Under “pH 9.5, glycine 25 mM”, the Tm is 80.2 °C; the “change of melting temperature, mutant” value is -0.48 °C; the “unfolding enthalpy (calorimetric)” value worked out at 178 kcal/mol.

In the case of M134A, under setting [1], the “ddG of mutation (higher = less stable)” value turned out to be 1.35 kcal/mol and the unfolding free energy came out at 4.2 kcal/mol. Besides, where the note is “pH 3.2, glycine 25 mM”, the Tm is 49.3 °C; the “change of melting temperature, mutant” value is -4.1 °C; the “unfolding enthalpy (calorimetric)” value is 113 kcal/mol. Under setting [2], the “ddG of mutation (higher = less stable)” value turned out to be 2.32 kcal/mol and the unfolding free energy stood at 3.71 kcal/mol. Moreover, where the note is “pH 9.5, glycine 25 mM”, the Tm worked out at 75.5 °C; the “change of melting temperature, mutant” value is -5.18 °C; the “unfolding enthalpy (calorimetric)” value came out at 193 kcal/mol.

Regarding M134I, where the note is “pH 3.2, glycine 25 mM”, the midpoint of thermal melting (Tm) came to 46.1 °C; the “change of melting temperature, mutant” value was -7.3 °C; the “unfolding enthalpy (calorimetric)” value turned out to be 98.8 kcal/mol. In addition, under setting [2], the “ddG of mutation (higher = less stable)” value stood at 1.89 kcal/mol and the unfolding free energy amounted to 4.14 kcal/mol. Further, for the setting “pH 7, Sodium phosphate 25 mM”, the midpoint of thermal melting (Tm) stood at 78.3 °C; the “change of melting temperature, mutant” value was -3.9 °C; the “unfolding enthalpy (calorimetric)” value turned out to be 179 kcal/mol. Further, where the note is “pH 9.5, 80.7 °C, glycine 25 mM”, the “ddG of mutation (higher = less stable)” value was 2.29 kcal/mol and the unfolding free energy is 3.75 kcal/mol. Moreover, for the setting “pH 9.5, glycine 25 mM”, the midpoint of thermal melting (Tm) was 75.9 °C; the “change of melting temperature, mutant” value was -4.8 °C; the “unfolding enthalpy (calorimetric)” value is 175 kcal/mol.

In the case of M134V, the “ddG of mutation (higher = less stable)” value reads like this: under setting [1], 1.35 kcal/mol; under setting [2], 1.84 kcal/mol; (pH 9.5, 80.7 °C, glycine 25 mM) 2.22 kcal/mol. For the same variant, the unfolding free energy by setting is: under setting [1], 4.2 kcal/mol; under setting [2], 4.19 kcal/mol; (pH 9.5, 80.7 °C, glycine 25 mM) 3.82 kcal/mol. Moreover, the Tm was determined as 49.1 °C (pH 3.2, glycine 25 mM); 78.6 °C (pH 7, Sodium phosphate 25 mM); 76.4 °C (pH 9.5, glycine 25 mM). The “change of melting temperature, mutant” value (pH 3.2, glycine 25 mM) was -4.3 °C; the “change of melting temperature, mutant” value (pH 7, Sodium phosphate 25 mM) was -3.6 °C; the “change of melting temperature, mutant” value (pH 9.5, glycine 25 mM) is -4.33 °C. In addition, the “unfolding enthalpy (calorimetric)” value reads like this: (pH 3.2, glycine 25 mM) 107 kcal/mol; (pH 7, Sodium phosphate 25 mM) 179 kcal/mol; (pH 9.5, glycine 25 mM) 184 kcal/mol.

Consider M134G, for which, for the setting “pH 7, Sodium phosphate 25 mM”, the Tm is 68.6 °C; the “change of melting temperature, mutant” value is -13.6 °C; the “unfolding enthalpy (calorimetric)” value stood at 191 kcal/mol. Further, under “pH 9.5, glycine 25 mM”, the Tm came to 66.3 °C; the “change of melting temperature, mutant” value is -14.4 °C; the “unfolding enthalpy (calorimetric)” value was determined as 187 kcal/mol.
